# B1: hirudin mutein M 12 (I29A L30K) (other)
# chain: VVYTDCTESGQNLCLCEGSVVCGQGNKCAKGSDGEKNQCVTGEGTPKPESHNDGDFEEIPEEYLQ
# B2: hirudin mutein M 24 (I29R L30Q) (other)
# chain: VVYTDCTESGQNLCLCEGSVVCGQGNKCRQGSDGEKNQCVTGEGTPKPESHNDGDFEEIPEEYLQ
# B3: hirudin mutein M 26 (I29R L30T) (other)
# chain: VVYTDCTESGQNLCLCEGSVVCGQGNKCRTGSDGEKNQCVTGEGTPKPESHNDGDFEEIPEEYLQ
# B4: hirudin mutein M 36 (I29T L30T) (other)
# chain: VVYTDCTESGQNLCLCEGSVVCGQGNKCTTGSDGEKNQCVTGEGTPKPESHNDGDFEEIPEEYLQ
# B5: hirudin mutein M 20 (I29E L30Q) (other)
# chain: VVYTDCTESGQNLCLCEGSVVCGQGNKCEQGSDGEKNQCVTGEGTPKPESHNDGDFEEIPEEYLQ
# B6: hirudin mutein M 29 (I29S L30Q) (other)
# chain: VVYTDCTESGQNLCLCEGSVVCGQGNKCSQGSDGEKNQCVTGEGTPKPESHNDGDFEEIPEEYLQ
# B7: hirudin mutein M 22 (I29E L30T) (other)
# chain: VVYTDCTESGQNLCLCEGSVVCGQGNKCETGSDGEKNQCVTGEGTPKPESHNDGDFEEIPEEYLQ
# B8: hirudin mutein M 27 (I29S L30A) (other)
# chain: VVYTDCTESGQNLCLCEGSVVCGQGNKCSAGSDGEKNQCVTGEGTPKPESHNDGDFEEIPEEYLQ
# B9: hirudin mutein M 34 (I29T L30Q) (other)
# chain: VVYTDCTESGQNLCLCEGSVVCGQGNKCTQGSDGEKNQCVTGEGTPKPESHNDGDFEEIPEEYLQ
# B10: hirudin mutein M 13 (I29A L30Q) (other)
# chain: VVYTDCTESGQNLCLCEGSVVCGQGNKCAQGSDGEKNQCVTGEGTPKPESHNDGDFEEIPEEYLQ
# B11: hirudin mutein M 23 (I29R L30K) (other)
# chain: VVYTDCTESGQNLCLCEGSVVCGQGNKCRKGSDGEKNQCVTGEGTPKPESHNDGDFEEIPEEYLQ
# B12: hirudin mutein M 2 (I29R L30H) (other)
# chain: VVYTDCTESGQNLCLCEGSVVCGQGNKCRHGSDGEKNQCVTGEGTPKPESHNDGDFEEIPEEYLQ
# B13: hirudin mutein M 15 (I29A L30T) (other)
# chain: VVYTDCTESGQNLCLCEGSVVCGQGNKCATGSDGEKNQCVTGEGTPKPESHNDGDFEEIPEEYLQ
# B14: hirudin mutein M 32 (I29T L30A) (other)
# chain: VVYTDCTESGQNLCLCEGSVVCGQGNKCTAGSDGEKNQCVTGEGTPKPESHNDGDFEEIPEEYLQ
# B15: hirudin mutein M 33 (I29T L30K) (other)
# chain: VVYTDCTESGQNLCLCEGSVVCGQGNKCTKGSDGEKNQCVTGEGTPKPESHNDGDFEEIPEEYLQ
# B16: hirudin mutein M 45 (V21K) (other)
# chain: VVYTDCTESGQNLCLCEGSVKCGQGNKCILGSDGEKNQCVTGEGTPKPESHNDGDFEEIPEEYLQ
# B17: hirudin mutein M 14 (I29A L30R) (other)
# chain: VVYTDCTESGQNLCLCEGSVVCGQGNKCARGSDGEKNQCVTGEGTPKPESHNDGDFEEIPEEYLQ
# B18: hirudin mutein M 44 (V21H) (other)
# chain: VVYTDCTESGQNLCLCEGSVHCGQGNKCILGSDGEKNQCVTGEGTPKPESHNDGDFEEIPEEYLQ
# B19: hirudin mutein M 31 (I29S L30T) (other)
# chain: VVYTDCTESGQNLCLCEGSVVCGQGNKCSTGSDGEKNQCVTGEGTPKPESHNDGDFEEIPEEYLQ
# B20: hirudin mutein M 28 (I29S L30K) (other)
# chain: VVYTDCTESGQNLCLCEGSVVCGQGNKCSKGSDGEKNQCVTGEGTPKPESHNDGDFEEIPEEYLQ
# B21: hirudin mutein M 25 (I29R L30R) (other)
# chain: VVYTDCTESGQNLCLCEGSVVCGQGNKCRRGSDGEKNQCVTGEGTPKPESHNDGDFEEIPEEYLQ
# B22: hirudin mutein M 17 (I29D L30Q) (other)
# chain: VVYTDCTESGQNLCLCEGSVVCGQGNKCDQGSDGEKNQCVTGEGTPKPESHNDGDFEEIPEEYLQ
# B23: hirudin mutein M 19 (I29E L30K) (other)
# chain: VVYTDCTESGQNLCLCEGSVVCGQGNKCEKGSDGEKNQCVTGEGTPKPESHNDGDFEEIPEEYLQ
# B24: hirudin mutein M 43 (V21G) (other)
# chain: VVYTDCTESGQNLCLCEGSVGCGQGNKCILGSDGEKNQCVTGEGTPKPESHNDGDFEEIPEEYLQ
# B25: hirudin mutein M 21 (I29E L30R) (other)
# chain: VVYTDCTESGQNLCLCEGSVVCGQGNKCERGSDGEKNQCVTGEGTPKPESHNDGDFEEIPEEYLQ
# B26: hirudin mutein M 11 (I29R L30R V40T) (other)
# chain: VVYTDCTESGQNLCLCEGSVVCGQGNKCRRGSDGEKNQCTTGEGTPKPESHNDGDFEEIPEEYLQ
# B27: hirudin mutein M 42 (V21A) (other)
# chain: VVYTDCTESGQNLCLCEGSVACGQGNKCILGSDGEKNQCVTGEGTPKPESHNDGDFEEIPEEYLQ
# B28: hirudin mutein M 30 (I29S L30R) (other)
# chain: VVYTDCTESGQNLCLCEGSVVCGQGNKCSRGSDGEKNQCVTGEGTPKPESHNDGDFEEIPEEYLQ
# B29: hirudin mutein M 16 (I29D L30A) (other)
# chain: VVYTDCTESGQNLCLCEGSVVCGQGNKCDAGSDGEKNQCVTGEGTPKPESHNDGDFEEIPEEYLQ
# B30: hirudin mutein M 41 (L15T) (other)
# chain: VVYTDCTESGQNLCTCEGSVVCGQGNKCILGSDGEKNQCVTGEGTPKPESHNDGDFEEIPEEYLQ
# B31: hirudin mutein M 35 (I29T L30R) (other)
# chain: VVYTDCTESGQNLCLCEGSVVCGQGNKCTRGSDGEKNQCVTGEGTPKPESHNDGDFEEIPEEYLQ
# Biological target: thrombin
# Assay: cell-based or functional assay
row,Binder,"Relative Activity (ratio of variant IC50/WT IC50), chromogenic thrombin inhibition assay [ratio]"
1,B1,1.45
2,B2,1
3,B3,1
4,B4,1.8
5,B5,1.52
6,B6,2
7,B7,1.8
8,B8,1.34
9,B9,2.4
10,B10,1.6
11,B11,0.93
12,B12,1.2
13,B13,1.21
14,B14,1.67
15,B15,1.6
16,B16,0.9

row,Binder,"Relative Activity (ratio of variant IC50/WT IC50), chromogenic thrombin inhibition assay [ratio]"
1,B17,2.7
2,B18,0.74
3,B19,1.1
4,B20,1.5
5,B21,1
6,B22,2
7,B23,1.1
8,B24,1
9,B25,1.21
10,B26,0.7
11,B27,0.93
12,B28,2.5
13,B29,1.6
14,B30,0.4
15,B31,2.3

# From patent publication US20060140929A1 (Merck KGaA, published 2006)
